Results: paper PMC2928010
Where two headings read alike, the source gives them in different places.

What was measured:
[1] = target: RNC–SRP: coumarin-labeled SRP C235 loaded with ribosome–nascent chain complex (E. coli) (UniProt P0AGD7); assay: FRET or BRET
[2] = target: RNC–SRP: coumarin-labeled SRP C235 loaded with ribosome–nascent chain complex (E. coli) (UniProt P0AGD7); assay: FRET or BRET; remark: listed apart in the source
[3] = target: acrylodan-labeled FtsY C356 (E. coli) (UniProt P10121); assay: other fluorescence titration
[4] = target: acrylodan-labeled FtsY C356 (E. coli) (UniProt P10121); assay: other fluorescence titration; remark: listed apart in the source

Substance | Kd [1] | Kd [2] | Kd [3] | Kd [4]
BODIPY-fluorescein–labeled FtsY C487 (from UniProt P10121 1-497) (receptor) | 104 nM | 68 nM |  | 
signal recognition particle (SRP): Ffh with 4.5S RNA (from UniProt P0AGD7 1-453) (complex) |  |  | < 4 nM | 145 nM
